± gives the standard deviation of the averaged measurements.

Results on 8 sequences are retold here after the supplement of paper PMC11246515.

The data set is described as follows: total protein half-life in vivo (active degradation + dilution); higher = more stable protein.
The mark [1] stands for this setting: E. coli NCM3722 delta-clpP delta-lon delta-hslV, growth: N-lim chemostat, doubling time 6 h.
The mark [2] stands for this setting: E. coli NCM3722 delta-clpP, growth: N-lim chemostat, doubling time 6 h.
Setting [3] is: E. coli NCM3722 delta-hslV, growth: N-lim chemostat, doubling time 6 h.
Where [4] appears, read: E. coli NCM3722 delta-lon, growth: N-lim chemostat, doubling time 6 h.
Setting [5] is: E. coli NCM3722 delta-smpB, growth: N-lim chemostat, doubling time 6 h.
[6] abbreviates: wild type E. coli NCM3722, growth: C-lim chemostat, doubling time 3 h.
Where [7] appears, read: wild type E. coli NCM3722, growth: C-lim chemostat, doubling time 6 h.
Where [8] appears, read: wild type E. coli NCM3722, growth: C-lim chemostat, doubling time 12 h.
Where [9] appears, read: wild type E. coli NCM3722, growth: N-lim chemostat, doubling time 6 h.
The mark [10] stands for this setting: wild type E. coli NCM3722, growth: N-lim chemostat, doubling time 12 h.
The mark [11] stands for this setting: wild type E. coli NCM3722, growth: P-lim chemostat, doubling time 6 h.
Where [12] appears, read: wild type E. coli NCM3722, growth: P-lim chemostat, doubling time 12 h.

Turning to “MIRFAVIGTNWITRQFVEAAHESGKYKLTAVYSRSLEQAQHFANDFSVEHLFTSLEAMAESDAIDAVYIASPNSLHFSQTQLFLSHKINVICEKPLASNLAEVDAAIACARENQVVLFEAFKTACLPNFHLLRQALPKVGKLRKVFFNYCQYSSRYQRYLDGENPNTFNPAFSNGSIMDIGFYCLASAVALFGEPKSVQATASLLASGVDAQGVVVMDYGDFSVTLQHSKVSDSVLASEIQGEAGSLVIEKLSECQKVCFVPRGSQMQDLTQPQHINTMLYEAELFATLVDEHLVDHPGLAVSRITAKLLTEIRRQTGVIFPADSVKL”, the “total protein half-life in vivo” value under setting [1] turned out to be 4.844 ± 0.015 h; the “total protein half-life in vivo” value under setting [2] worked out at 4.33 ± 0.36 h; the “total protein half-life in vivo” value under setting [3] was found to be 4.29 ± 0.31 h; the “total protein half-life in vivo” value under setting [4] came out at 4.616 ± 0.03 h; the “total protein half-life in vivo” value under setting [5] was 4.18 ± 0.54 h; the “total protein half-life in vivo” value under setting [6] is 2.56 ± 0.41 h. In addition, the “total protein half-life in vivo” value reads like this: under setting [7], 5.28 ± 0.46 h; under setting [8], 9.44 ± 1.5 h; under setting [9], 4.08 ± 0.11 h; under setting [10], 6.53 ± 1.1 h; under setting [11], 6.55 ± 1 h; under setting [12], 10.8 ± 0.27 h.

For “MKPQVYHVDAFTSQPFRGNSAGVVFPADNLSEAQMQLIARELGHSETAFLLHSDDSDVRIRYFTPTVEVPICGHATVAAHYVRAKVLGLGNCTIWQTSLAGKHRVTIEKHNDDYRISLEQGTPGFEPPLEGETRAAIINALHLTEDDILPGLPIQVATTGHSKVMIPLKPEVDIDALSPDLNALTAISKKIGCNGFFPFQIRPGKNETDGRMFSPAIGIVEDPVTGNANGPMGAWLVHHNVLPHDGNVLRVKGHQGRALGRDGMIEVTVTIRDNQPEKVTISGTAVILFHAEWAIEL”, the “total protein half-life in vivo” value by setting is: under setting [1], over 8 h; under setting [2], 4.73 h; under setting [5], 6.56 h.

Take “MKQYLELMQKVLDEGTQKNDRTGTGTLSIFGHQMRFNLQDGFPLVTTKRCHLRSIIHELLWFLQGDTNIAYLHENNVTIWDEWADENGDLGPVYGKQWRAWPTPDGRHIDQITTVLNQLKNDPDSRRIIVSAWNVGELDKMALAPCHAFFQFYVADGKLSCQLYQRSCDVFLGLPFNIASYALLVHMMAQQCDLEVGDFVWTGGDTHLYSNHMDQTHLQLSREPRPLPKLIIKRKPESIFDYRFEDFEIEGYDPHPGIKAPVAI [P0A884]”: the “total protein half-life in vivo” value reads like this: under setting [1], 4.71 ± 0.41 h; under setting [2], 4.939 ± 0.04 h; under setting [3], 4.26 ± 0.21 h; under setting [4], 4.54 ± 0.25 h; under setting [5], 4.48 ± 0.38 h; under setting [6], 3.23 ± 0.11 h. In addition, the “total protein half-life in vivo” value was found to be 5.59 ± 0.4 h under setting [7]; 10.3 ± 0.11 h under setting [8]; 4.62 ± 0.15 h under setting [9]; 7.94 ± 0.4 h under setting [10]; 5.65 ± 0.14 h under setting [11]; 10.4 ± 2.7 h under setting [12].

Turning to “MDQKQIEEIVRSVMASMGQAAPAPSEAKCATTNCAAPVTSESCALDLGSAEAKAWIGVENPHRADVLTELRRSTVARVCTGRAGPRPRTQALLRFLADHSRSKDTVLKEVPEEWVKAQGLLEVRSEISDKNLYLTRPDMGRRLCAEAVEALKAQCVANPDVQVVISDGLSTDAITVNYEEILPPLMAGLKQAGLKVGTPFFVRYGRVKIEDQIGEILGAKVVILLVGERPGLGQSESLSCYAVYSPRMATTVEADRTCISNIHQGGTPPVEAAAVIVDLAKRMLEQKASGINMTR”, the “total protein half-life in vivo” value by setting is: under setting [1], 5.05 ± 0.91 h; under setting [2], 3.65 ± 0.13 h; under setting [3], 3.19 ± 0.053 h; under setting [4], 4.21 ± 0.95 h; under setting [5], 3.11 ± 0.17 h; under setting [6], 2.6 ± 0.1 h. Further, the “total protein half-life in vivo” value turned out to be 5.43 ± 0.85 h under setting [7]; 8.48 ± 0.82 h under setting [8]; 3.41 ± 0.32 h under setting [9]; 4.31 ± 0.15 h under setting [10]; 4.69 ± 0.096 h under setting [11]; 9.58 ± 0.56 h under setting [12].

Turning to “MKITKITTYRLPPRWMFLKIETDEGVVGWGEPVIEGRARTVEAAVHELGDYLIGQDPSRINDLWQVMYRAGFYRGGPILMSAIAGIDQALWDIKGKVLNAPVWQLMGGLVRDKIKAYSWVGGDRPADVIDGIKTLREIGFDTFKLNGCEELGLIDNSRAVDAAVNTVAQIREAFGNQIEFGLDFHGRVSAPMAKVLIKELEPYRPLFIEEPVLAEQAEYYPKLAAQTHIPLAAGERMFSRFDFKRVLEAGGISILQPDLSHAGGITECYKIAGMAEAYDVTLAPHCPLGPIALAACLHIDFVSYNAVLQEQSMGIHYNKGAELLDFVKNKEDFSMVGGFFKPLTKPGLGVEIDEAKVIEFSKNAPDWRNPLWRHEDNSVAEW [Q6BF17]”, the “total protein half-life in vivo” value is 3.02 ± 0.17 h under setting [1]; 1.75 ± 0.17 h under setting [2]; 1.27 ± 0.18 h under setting [5]; 2.67 ± 0.21 h under setting [6]; 3.47 ± 0.4 h under setting [7]; 5.79 ± 0.88 h under setting [8]. Besides, the “total protein half-life in vivo” value was 2.5 h under setting [9], 1.84 h under setting [10], 4.36 ± 0.18 h under setting [11] and 7.25 ± 0.96 h under setting [12].

Take “MPQHDQLHRYLFENFAVRGELVTVSETLQQILENHDYPQPVKNVLAELLVATSLLTATLKFDGDITVQLQGDGPMNLAVINGNNNQQMRGVARVQGEIPENADLKTLVGNGYVVITITPSEGERYQGVVGLEGDTLAACLEDYFMRSEQLPTRLFIRTGDVDGKPAAGGMLLQVMPAQNAQQDDFDHLATLTETIKTEELLTLPANEVLWRLYHEEEVTVYDPQDVEFKCTCSRERCADALKTLPDEEVDSILAEDGEIDMHCDYCGNHYLFNAMDIAEIRNNASPADPQVH [P0A6Y5]”: the “total protein half-life in vivo” value under setting [1] came out at 4.77 ± 0.4 h; the “total protein half-life in vivo” value under setting [2] was found to be 4.06 ± 0.058 h; the “total protein half-life in vivo” value under setting [3] was 4.35 ± 0.87 h; the “total protein half-life in vivo” value under setting [4] came to 4.6 ± 0.6 h; the “total protein half-life in vivo” value under setting [5] is 3.55 ± 0.12 h; the “total protein half-life in vivo” value under setting [6] was found to be 1.924 ± 0.015 h. The “total protein half-life in vivo” value runs as follows: under setting [7], 3.85 ± 0.11 h; under setting [8], 7.32 ± 0.54 h; under setting [9], 4.02 ± 0.13 h; under setting [10], 6.02 ± 0.22 h; under setting [11], 4.51 ± 0.073 h; under setting [12], 9.18 ± 2 h.

“MKHELSSMKAFVILAESSSFNNAAKLLNITQPALTRRIKKMEEDLHVQLFERTTRKVTLTKAGKRLLPEARELIKKFDETLFNIRDMNAYHRGMVTLACIPTAVFYFLPLAIGKFNELYPNIKVRILEQGTNNCMESVLCNESDFGINMNNVTNSSIDFTPLVNEPFVLACRRDHPLAKKQLVEWQELVGYKMIGVRSSSGNRLLIEQQLADKPWKLDWFYEVRHLSTSLGLVEAGLGISALPGLAMPHAPYSSIIGIPLVEPVIRRTLGIIRRKDAVLSPAAERFFALLINLWTDDKDNLWTNIVERQRHALQEIG”: the “total protein half-life in vivo” value under setting [1] was found to be 3.61 h.

As for “MGQQKQRNRRWVLASRPHGAPVPENFRLEEDDVATPGEGQVLLRTVYLSLDPYMRGRMSDEPSYSPPVDIGGVMVGGTVSRVVESNHPDYQSGDWVLGYSGWQDYDISSGDDLVKLGDHPQNPSWSLGVLGMPGFTAYMGLLDIGQPKEGETLVVAAATGPVGATVGQIGKLKGCRVVGVAGGAEKCRHATEVLGFDVCLDHHADDFAEQLAKACPKGIDIYYENVGGKVFDAVLPLLNTSARIPVCGLVSSYNATELPPGPDRLPLLMATVLKKRIRLQGFIIAQDYGHRIHEFQREMGQWVKEDKIHYREEITDGLENAPQTFIGLLKGKNFGKVVIRVAGDD”, the “total protein half-life in vivo” value came out at 4.9643 ± 0.002 h under setting [1]; 5.13 ± 1.2 h under setting [2]; 5.03 ± 0.36 h under setting [3]; 4.74 ± 0.34 h under setting [4]; 4.16 ± 0.6 h under setting [5]; 3.3 ± 0.29 h under setting [6]. The “total protein half-life in vivo” value was found to be 5.53 ± 0.19 h under setting [7]; 10.3 ± 1 h under setting [8]; 4.48 ± 0.35 h under setting [9]; 7.42 ± 0.32 h under setting [10]; 5.59 ± 0.22 h under setting [11]; 10.9 ± 0.62 h under setting [12].
